# Test results as given in patent US20100143262A1, “Method for Identifying Allergenic Proteins And Peptides” (priority 2008, published 2010).
# B1: recombinant aS2-casein (protein)
# chain: KNTMEHVSSSEESIISQETYKQEKNMAINPSKENLCSTFCKEVVRNANEEEYSIGSSSEESAEVATEEVKITVDDKHYQKALNEINQFYQKFPQYLQYLYQGPIVLNPWDQVKRNAVPITPTLNREQLSTSEENSKKTVDMESTEVFTKKTKLTEEEKNRLNFLKKISQRYQKFALPQYLKTVYQHQKAMKPWIQPKTKVIPYVRYL
# notes: expressed in E. coli
# B2: BSA_F3: recombinant fragment 3 of BSA, 200 aa, sequence in Table 1A (protein)
# chain: MPQNLIKQNCDQFEKLGEYGFQNALIVRYTRKVPQVSTPTLVEVSRSLGKVGTRCCTKPESERMPCTEDYLSLWNRLCVLHEKTPVSEKVTKCCTESLVNRRPCFSALTPDETYVPKAFDEKLFTFHADICTLPDTEKQIKKQTALVELLKHKPKATEEQLKTVMENFVAFVDKCCAADDKEACFAVEGPKLVVSTQTALAHHHHHH
# B3: BSA_F1: recombinant fragment 1 of BSA, 190 aa, sequence in Table 1A (protein)
# chain: MRGVFRRDTHKSEIAHRFKDLGEEHFKGLVLIAFSQYLQQCPFDEHVKLVNELTEFAKTCVADESHAGCEKSLHTLFGDELCKVASLRETYGDMADCCEKQEPERNECFLSHKDDSPDLPKLKPDPNTLCDEFKADEKKFWGKYLYEIARRHPYFYAPELLYYANKYNGVFQECCQAEDKGACLLPKIETMREKVLTSSHHHHHH
# B4: beta-lactoglobulin variant A (protein)
# chain: LIVTQTMKGLDIQKVAGTWYSLAMAASDISLLDAQSAPLRVYVEELKPTPEGDLEILLQKWENDECAQKKIIAEKTKIPAVFKIDALNENKVLVLDTDYKKYLLFCMENSAEPEQSLVCQCLVRTPEVDDEALEKFDKALKALPMHIRLSFNPTQLEEQCHI
# notes: natural purified protein
# B5: recombinant alphaS1-casein (protein)
# chain: RPKHPIKHQGLPQEVLNENLLRFFVAPFPEVFGKEKVNELSKDIGSESTEDQAMEDIKQMEAESISSSEEIVPNSVEQKHIQKEDVPSERYLGYLEQLLRLKKYKVPQLEIVPNSAEERLHSMKEGIHAQQKEPMIGVNQELAYFYPELFRQFYQLDAYPSGAWYYVPLGTQYTDAPSFSDIPNPIGSENSEKTTMPLW
# notes: expressed in E. coli
# B6: beta-casein (protein, UniProt P02666 16-224, looked up)
# Beta-casein: RELEELNVPGEIVESLSSSEESITRINKKIEKFQSEEQQQTEDELQDKIHPFAQTQSLVYPFPGPIPNSLPQNIPPLTQTPVVVPPFLQPEVMGVSKVKEAMAPKHKEMPFPKYPVEPFTESQSLTLTDVENLHLPLPLLQSWMHQPHQPLPPTVMFPPQSVLSLSQSKVLPVPQKAVPYPQRDMPIQAFLLYQEPVLGPVRGPFPIIV
# notes: natural purified protein
# B7: recombinant beta-casein (protein)
# chain: B6 Beta-casein
# notes: expressed in E. coli
# B8: BSA_F2: recombinant fragment 2 of BSA, 189 aa, sequence in Table 1A (protein)
# chain: MARQRLRCASIQKFGERALKAWSVARLSQKEPKAEFVEVTKLVTDLTKVHKECCHGDLLECADDRADLAKYICDNQDTISSKLKECCDKPLLEKSHCIAEVEKDAIPENLPPLTADFAEDKDVCKNYQEAKDAFLGSFLYEYSRRHPEYAVSVLLRLAKEYEATLEECCAKDDPHACYSTVFDKLKHLVDEHHHHHH
# B9: lactoferrin (protein, UniProt P24627 20-708, looked up)
# Lactotransferrin: APRKNVRWCTISQPEWFKCRRWQWRMKKLGAPSITCVRRAFALECIRAIAEKKADAVTLDGGMVFEAGRDPYKLRPVAAEIYGTKESPQTHYYAVAVVKKGSNFQLDQLQGRKSCHTGLGRSAGWIIPMGILRPYLSWTESLEPLQGAVAKFFSASCVPCIDRQAYPNLCQLCKGEGENQCACSSREPYFGYSGAFKCLQDGAGDVAFVKETTVFENLPEKADRDQYELLCLNNSRAPVDAFKECHLAQVPSHAVVARSVDGKEDLIWKLLSKAQEKFGKNKSRSFQLFGSPPGQRDLLFKDSALGFLRIPSKVDSALYLGSRYLTTLKNLRETAEEVKARYTRVVWCAVGPEEQKKCQQWSQQSGQNVTCATASTTDDCIVLVLKGEADALNLDGGYIYTAGKCGLVPVLAENRKSSKHSSLDCVLRPTEGYLAVAVVKKANEGLTWNSLKDKKSCHTAVDRTAGWNIPMGLIVNQTGSCAFDEFFSQSCAPGADPKSRLCALCAGDDQGLDKCVPNSKEKYYGYTGAFRCLAEDVGDVAFVKNDTVWENTNGESTADWAKNLNREDFRLLCLDGTRKPVTEAQSCHLAVAPNHAVVSRSDRAAHVKQVLLHQQALFGKNGKNCPDKFCLFKSETKNLLFNDNTECLAKLGGRPTYEEYLGTEYVTAIANLKKCSTSPLLEACAFLTR
# notes: natural purified protein
# B10: human alpha-lactalbumin (protein)
# chain: KQFTKCELSQLLKDIDGYGGIALPELICTMFHTSGYDTQAIVENNESTEYGLFQISNKLWCKSSQVPQSRNICDISCDKFLDDDITDDIMCAKKILDIKGIDYWLAHKALCTEKLEQWLCEKL
# notes: natural purified protein
# System: serum IgE of cow's milk allergic patients
# Experiment: IgE binding capacity (IgE reactivity) of milk components with patients' sera
# Parameters: species or system human
# Details: sera of cow's milk allergic patients (n=78)
# Excerpt: (§1) Sera from 78 patients who were selected according to a positive case history, positive skin-prick reactions and determination of specific IgE to cow's milk extract using the CAP-FEIA System (Phadia, Uppsala, Sweden) were used. Sera were obtained from five adults and 73 children (30 female and 43 male) from Austria, Germany, Italy, Spain and France.
row,Molecule,IgE binding (% of patients)
1,B1,9.0 % of patients
2,B2,8.5 % of patients
3,B3,2.1 % of patients
4,B4,50.0 % of patients
5,B5,48.7 % of patients
6,B6,44.9 % of patients
7,B7,55.1 % of patients
8,B8,8.5 % of patients
9,B9,5.1 % of patients
10,B10,30.8 % of patients

# System: Humanized Rat Basophil Leukaemia (RBL) cells (clone RBL-703/21)
# Experiment: human RBL assay: β-hexosaminidase release of humanized RBL cells loaded with patients' serum IgE
# Assay type: cell-based
# Details: percentage of 78 patients' sera triggering β-hexosaminidase release; milk components 0.3 μg/ml
# Excerpt: A scientifically approved model to test biological reactivity of molecules is induction of histamine release from human basophil granulocytes (Purohit 2005). For this purpose a rat basophil leukaemia cell line expressing the α-chain of the human FcεRI receptor (Hoffmann et al., Int Arch Allergy Immunol, Vol 126(4), p. 277-285) was used. Different milk components (n=33) including whole milk extracts from different species, milk fractions, purified natural and recombinant cow's milk proteins, and recombinant protein fragments were tested. The percentages of 78 patients whose serum IgE antibodies trigger β-hexosaminidase release of the humanized RBL cells in response to the individual milk components were determined (FIG. 3).
# as §1
# Humanized Rat Basophil Leukaemia (RBL) cells (clone RBL-703/21) were incubated in microtiter plates overnight at 37° C. (7% CO2, 95% humidity) with 50 μl human sera, diluted 1:10. Afterwards cells were washed and exposed to milk components, diluted to 0.3 μg/ml protein in Tyrodes buffer containing 50% D2O and 0.1% BSA/HAS for 1 hour at 37° C. (7% CO2, 95% humidity). Spontaneous release of the cells was also evaluated. Finally, the cell supernatants were incubated with 50 μl assay solution (0.1 M citric acid or sodium citrate, pH 4.5, 160 μM 4-methyl umbelliferyl-N-acetyl-β-D-glucosaminide) in new microtiter plates at 37° C. (7% CO2, 95% humidity) for 1 h. The reactions were stopped by addition of 100 μl glycine buffer per well and the fluorescence measured at λex: 360 and λem: 465 using a fluorescence microplate reader. The specific hexosaminidase release of each sample was calculated using the formula: [(FlS−FlSp):(FlZ−FlSp)]×100 (where […] is the fluorescence of the sample; FlSp is the fluorescence of the spontaneous release and FlZ is the fluorescence of the total release).
row,Molecule,biological activity (% of patients)
1,B1,5.1 % of patients
2,B2,8.5 % of patients
3,B3,4.3 % of patients
4,B4,28.2 % of patients
5,B5,19.2 % of patients
6,B6,34.6 % of patients
7,B7,10.3 % of patients
8,B8,4.3 % of patients
9,B9,2.6 % of patients
10,B10,6.4 % of patients
